Results taken from article PMC9951844 (Nature Communications, 2023).

How the values were obtained:
[1] = biological target: SARS-CoV-2 Beta (B.1.351) S1 (SARS-CoV-2 Beta (B.1.351), strain)
[2] = biological target: S-R/Wildtype spike (SARS-CoV-2 hCoV-19/Wuhan/WIV04/2019, UniProt P0DTC2, stabilised)
[3] = biological target: Omicron BA.1 spike (based on S-R/Wildtype spike) (SARS-CoV-2 Omicron BA.1 (B.1.1.529), S371L | S373P | S375F | K417N)
[4] = biological target: SARS-CoV-2 Kappa (B.1.617.1) spike ECD (SARS-CoV-2 Kappa (B.1.617.1), strain)
[5] = biological target: SARS-CoV-2 Gamma (P.1) S1 (SARS-CoV-2 Gamma (P.1), strain)
[6] = biological target: SARS-CoV-2 Delta (B.1.617.2) S1 (SARS-CoV-2 Delta (B.1.617.2), strain)
[7] = biological target: Delta spike (based on S-R/Wildtype spike) (SARS-CoV-2 Delta (B.1.617.2), L452R | T478K)
[8] = biological target: SARS-CoV-2 Omicron BA.1 (B.1.1.529) RBD (SARS-CoV-2 Omicron BA.1 (B.1.1.529), strain)
[9] = biological target: SARS-CoV-2 wildtype S1 (SARS-CoV-2 wildtype (Wuhan), UniProt P0DTC2)
[10] = biological target: SARS-CoV-2 Lambda (C.37) RBD (SARS-CoV-2 Lambda (C.37), strain)

Measured: binding result

B1: YB12-197 (antibody, V domains shown)
VH: EVQLVESGGGLVQPGGSLRLSCAASGFTVSSNYMNWVRQAPGKGLEWVSVIYSGGSTFYADSVKGRFTISRDNSKNTLYLQMNSLRAEDTAVYYCARDAYNYGANWGQGTLVTVSS
VL: HLVLTQSPSASASLGASVKLTCTLSSGHSNNAIAWHQQQPEKGPRYLMHLNSDGSHTKGDGIPDRFSGSSSGAERYLTISSLQSEDEAEYYCQTWGTDIHWVFGGGTKLTVR
binds: all assays above

B2: YB13-281 (antibody, V domains shown)
VH: EVQLVESGGGLVKPGGSLRLSCAASGFTFSSYSMNWVRQAPGKGLEWVSSISSSSSYIHYADSVKGRFTISRDNAKNSLYLQMNSLRAEDTAVYYCARVSSKDYYDRSGYLRGDYDYGMDVWGQGTTVTVSS
VL: QSVLTQPPSVSGAPGQRVTISCTGNSSNIGAAYDVHWYQQLPGTAPKLLIYGNSNRPSGVPDRFSGSKSGTSASLAITGLQAEDEADYYCQSYDSSLSGVFGGGTKLTVL
binds: all assays above

B3: YB9-120 (antibody, V domains shown)
VH: QVQLQESGPGLVKPSGTLSLTCAVSGGSIRTTKWWSWVRQPPGKGLEWIGEIHHGGNTNYNPSLKSRVTISVDKSKNQFSLKLTSVTAADTAVYYCARDGGGVGTPLEYWGQGTLVTVSS
VL: QSGLTQPASVSGSPGQSITISCTGTISDVGAYNYVSWYQQHPGRAPKVVIYDVSERPSGTSNRFSGSKSGNTASLTISGLQAEDEADYYCSSFTNTTPVVFGGGTKLTVL
binds: all assays above

B4: YB13-208 (antibody, V domains shown)
V domain 1: QITLKESGPTLVKPTQTLTLTCTFSGLSLSTSGVSVGWIRQPPGKAPEWLALIYWDDDKRYSPSLTSRLSITKDTSKNQVVLTMTNMDPVDTATYYCAHPRYYGDSSGYYWIWGQGTMVTVSS
V domain 2: SYELTQPPSVSVSPGQTARITCSGDALPKQYAYWYQQKPGQAPVVVMYKTSERPSGIPERFSGSSSGTTVTLTISGVQAEDEADYYCQSADSSGFYVFGTGTQVTVL
not listed: [8]
binds: all other assays above
